Test results taken from the supplement of paper PMC5998384.

What was measured:
[1] = tested on: HeLa Kyoto; assay: melting temperature (median over replicates), in situ; higher = more thermally stable
[2] = tested on: HeLa Kyoto; assay: solubility change mitosis vs G1/S (difference of NP-40 vs SDS log2 ratios) (log2 ratio difference); higher = more soluble in mitosis
[3] = tested on: HeLa Kyoto; assay: solubility in G1/S (NP-40 vs SDS abundance) (log2 ratio); higher = more soluble; conditions: cell cycle stage: G1/S
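Wherever melting temperature (median over replicates), in situ is given: HeLa Kyoto cells synchronized by double thymidine or nocodazole block, proteins quantified by TMT10plex mass spectrometry, three independent biological replicates.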
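Wherever solubility change mitosis vs G1/S (difference of NP-40 vs SDS log2 ratios) is given: synchronized HeLa Kyoto cells (double thymidine block for G1/S, nocodazole release for mitosis), protein amounts in NP-40 versus SDS lysates quantified by mass spectrometry, three biological replicates.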
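Wherever solubility in G1/S (NP-40 vs SDS abundance) is given: HeLa Kyoto cells arrested at G1/S by double thymidine block, proteins quantified by TMT10plex mass spectrometry in mild NP-40 versus SDS extracts, three biological replicates.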

| Sequence | melting temperature ([1]; cell cycle stage: G1/S) [°C] | melting temperature ([1]; cell cycle stage: mitosis) [°C] | solubility change mitosis (log2) [2] | solubility in G1/S (log2) [3] |
| --- | --- | --- | --- | --- |
| MSQSRHRAEAPPLEREDSGTFSLGKMITAKPGKTPIQVLHEYGMKTKNIPVYECERSDVQIHVPTFTFRVTVGDITCTGEGTSKKLAKHRAAEAAINILKANASICFAVPDPLMPDPSKQPKNQLNPIGSLQELAIHHGWRLPEYTLSQEGGPAHKREYTTICRLESFMETGKGASKKQAKRNAAEKFLAKFSNISPENHISLTNVVGHSLGCTWHSLRNSPGEKINLLKRSLLSIPNTDYIQLLSEIAKEQGFNITYLDIDELSANGQYQCLAELSTSPITVCHGSGISCGNAQSDAAHNALQYLKIIAERK [PRKRA] | 50.1 | 50 | 0.0942 | 0.0756 |
| MSLQSRLSGRLAQLRAAGQLLVPPRPRPGHLAGATRTRSSTCGPPAFLGVFGRRARTSAGVGAWGAAAVGRTAGVRTWAPLAMAAKVDLSTSTDWKEAKSFLKGLSDKQREEHYFCKDFVRLKKIPTWKEMAKGVAVKVEEPRYKKDKQLNEKISLLRSDITKLEVDAIVNAANSSLLGGGGVDGCIHRAAGPLLTDECRTLQSCKTGKAKITGGYRLPAKYVIHTVGPIAYGEPSASQAAELRSCYLSSLDLLLEHRLRSVAFPCISTGVFGYPCEAAAEIVLATLREWLEQHKDKVDRLIICVFLEKDEDIYRSRLPHYFPVA [MACROD1] | 50.6 | 51.1 | -0.147 | 0.246 |
| MAAATIVHDTSEAVELCPAYGLYLKPITKMTISVALPQLKQPGKSISNWEVMERLKGMVQNHQFSTLRISKSTMDFIRFEGEVENKSLVKSFLACLDGKTIKLSGFSDILKVRAAEFKIDFPTRHDWDSFFRDAKDMNETLPGERPDTIHLEGLPCKWFALKESGSEKPSEDVLVKVFEKFGEIRNVDIPMLDPYREEMTGRNFHTFSFGGHLNFEAYVQYREYMGFIQAMSALRGMKLMYKGEDGKAVACNIKVSFDSTKHLSDASIKKRQLERQKLQELEQQREEQKRREKEAEERQRAEERKQKELEELERERKREEKLRKREQKQRDRELRRNQKKLEKLQAEEQKQLQEKIKLEERKLLLAQRNLQSIRLIAELLSRAKAVKLREQEQKEEKLRLQQQEERRRLQEAELRRVEEEKERALGLQRKERELRERLLSILLSKKPDDSHTHDELGVAHADLLQPVLDILQTVSSGCVSATTLHPLGGQPPAGAPKESPAHPEADGAPKSVNGSVAEEAPCKEVQSSCRVVPEDGSPEKRCPGGVLSCIPDNNQQPKGIPACEQNVSRKDTRSEQDKCNREPSKGRGRATGDGLADRHKRERSRARRASSREDGRPRKERRPHKKHAYKDDSPRRRSTSPDHTRSRRSHSKDRHRRERSRERRGSASRKHSRHRRRSERSRSRSPSRHRSTWNR [AKAP17A] | 47 | 49.2 | 0.521 | -1.06 |
| MLGWIKRLIRMVFQQVGVSMQSVLWSRKPYGSSRSIVRKIGTNLSLIQCPRVQFQINSHATEWSPSHPGEDAVASFADVGWVAKEEGECSARLRTEVRSRPPLQDDLLFFEKAPSRQISLPDLSQEEPQLKTPALANEEALQKICALENELAALRAQIAKIVTQQEQQNLTAGDLDSTTFGTIPPHPPPPPPPLPPPALGLHQSTSAVDLIKERREKRANAGKTLVKNNPKKPEMPNMLEILKEMNSVKLRSVKRSEQDVKPKPVDATDPAALIAEALKKKFAYRYRSDSQDEVEKGIPKSESEATSERVLFGPHMLKPTGKMKALIENVSDS [MTFR1] | 49.3 | 52.1 | 0.0301 | 0.556 |
| MTDRYTIHSQLEHLQSKYIGTGHADTTKWEWLVNQHRDSYCSYMGHFDLLNYFAIAENESKARVRFNLMEKMLQPCGPPADKPEEN [SF3B5] | 52.7 | 51.1 | 0.221 | -0.73 |
| MAERGRKRPCGPGEHGQRIEWRKWKQQKKEEKKKWKDLKLMKKLERQRAQEEQAKRLEEEEAAAEKEDRGRPYTLSVALPGSILDNAQSPELRTYLAGQIARACAIFCVDEIVVFDEEGQDAKTVEGEFTGVGKKGQACVQLARILQYLECPQYLRKAFFPKHQDLQFAGLLNPLDSPHHMRQDEESEFREGIVVDRPTRPGHGSFVNCGMKKEVKIDKNLEPGLRVTVRLNQQQHPDCKTYHGKVVSSQDPRTKAGLYWGYTVRLASCLSAVFAEAPFQDGYDLTIGTSERGSDVASAQLPNFRHALVVFGGLQGLEAGADADPNLEVAEPSVLFDLYVNTCPGQGSRTIRTEEAILISLAALQPGLIQAGARHT [C9ORF114] |  | 51.8 | 0.696 | -1.68 |
| MGLGPVFLLLAGIFPFAPPGAAAEPHSLRYNLTVLSWDGSVQSGFLTEVHLDGQPFLRCDRQKCRAKPQGQWAEDVLGNKTWDRETRDLTGNGKDLRMTLAHIKDQKEGLHSLQEIRVCEIHEDNSTRSSQHFYYDGELFLSQNLETKEWTMPQSSRAQTLAMNVRNFLKEDAMKTKTHYHAMHADCLQELRRYLKSGVVLRRTVPPMVNVTRSEASEGNITVTCRASGFYPWNITLSWRQDGVSLSHDTQQWGDVLPDGNGTYQTWVATRICQGEEQRFTCYMEHSGNHSTHPVPSGKVLVLQSHWQTFHVSAVAAAAIFVIIIFYVRCCKKKTSAAEGPELVSLQVLDQHPVGTSDHRDATQLGFQPLMSDLGSTGSTEGA [MICA] | 55.9 | 57.2 | -0.108 | -0.128 |
| MRKIDLCLSSEGSEVILATSSDEKHPPENIIDGNPETFWTTTGMFPQEFIICFHKHVRIERLVIQSYFVQTLKIEKSTSKEPVDFEQWIEKDLVHTEGQLQNEEIVAHDGSATYLRFIIVSAFDHFASVHSVSAEGTVVSNLSS [HSPB11] | 53.3 | 55.1 | -0.328 | 0.137 |
| MVPGSEGPARAGSVVADVVFVIEGTANLGPYFEGLRKHYLLPAIEYFNGGPPAETDFGGDYGGTQYSLVVFNTVDCAPESYVQCHAPTSSAYEFVTWLDGIKFMGGGGESCSLIAEGLSTALQLFDDFKKMREQIGQTHRVCLLICNSPPYLLPAVESTTYSGCTTENLVQQIGERGIHFSIVSPRKLPALRLLFEKAAPPALLEPLQPPTDVSQDPRHMVLVRGLVLPVGGGSAPGPLQSKQPVPLPPAAPSGATLSAAPQQPLPPVPPQYQVPGNLSAAQVAAQNAVEAAKNQKAGLGPRFSPITPLQQAAPGVGPPFSQAPAPQLPPGPPGAPKPPPASQPSLVSTVAPGSGLAPTAQPGAPSMAGTVAPGGVSGPSPAQLGAPALGGQQSVSNKLLAWSGVLEWQEKPKPASVDANTKLTRSLPCQVYVNHGENLKTEQWPQKLIMQLIPQQLLTTLGPLFRNSRMVQFHFTNKDLESLKGLYRIMGNGFAGCVHFPHTAPCEVRVLMLLYSSKKKIFMGLIPYDQSGFVNGIRQVITNHKQVQQQKLEQQQRGMGGQQAPPGLGPILEDQARPSQNLLQLRPPQPQPQGTVGASGATGQPQPQGTAQPPPGAPQGPPGAASGPPPPGPILRPQNPGANPQLRSLLLNPPPPQTGVPPPQASLHHLQPPGAPALLPPPHQGLGQPQLGPPLLHPPPAQSWPAQLPPRAPLPGQMLLSGGPRGPVPQPGLQPSVMEDDILMDLI [MED25] | 52.1 | 50.9 | -0.172 | 0.612 |
